This note sets out measurements from patent US20160024208A1 (Regeneron, published 2016).

Test [1] deals with T1, Native Nav1.7 (3-1) peptide, human (human).
T1 construct: Synthetic peptide (Celtek), unbiotinylated; also called Human Nav1.7 3-1 native; Nav1.7 3-1 native peptide
T1 peptide: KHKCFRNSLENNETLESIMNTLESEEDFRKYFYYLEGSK
Kind of test: SPR, captured antibody, peptide analyte. The procedure, abridged: (§1)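 Peptide analytes flowed at multiple concentrations over anti-Nav1.7 antibodies held by an anti-Fc capture surface. After reference-surface and buffer-blank subtraction, a global 1:1 Langmuir fit gave ka and kd, with KD as kd/ka and dissociative half-life as ln2/kd.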
(In general: In SPR one partner is held on a chip, and binding of the other changes the refractive index at the surface.)

For test [2], the target named is T2, N-Term Biotin Nav1.7 (3-1) peptide, mulatta (mulatta (monkey), not fully specified; N-terminal biotin attached via a G4S linker).
T2 construct: Synthetic peptide; also called Mulatta Nav1.7 3-1 N-term biotin; monkey
T2 peptide: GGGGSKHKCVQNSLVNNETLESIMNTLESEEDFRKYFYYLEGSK
Kind of test: SPR, captured antibody, peptide analyte. In a few lines:
as §1

The target in test [3] is T3, N-Term Biotin Nav1.7 (3-1) peptide, mouse (mouse, not fully specified; N-terminal biotin attached via a G4S linker).
T3 construct: Synthetic peptide; also called Mouse Nav1.7 3-1 N-term biotin
T3 peptide: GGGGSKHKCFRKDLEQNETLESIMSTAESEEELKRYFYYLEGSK
Kind of test: SPR, captured antibody, peptide analyte. In a few lines:
as §1

In test [4] the target is T4, Native Nav1.7 (3-1) peptide, rat (rat).
T4 construct: Synthetic peptide; also called Rat Nav1.7 3-1 native
T4 peptide: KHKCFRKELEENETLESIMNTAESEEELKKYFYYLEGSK
Kind of test: SPR, captured antibody, peptide analyte. In a few lines: as §1

Test [5] has as its target T5, C-term Biotin Nav1.7 (3-1) peptide, human (human, not fully specified; C-terminal biotin attached via a G4S linker).
T5 construct: Synthetic peptide; also called Human Nav1.7 3-1 C-term biotin
T5 peptide: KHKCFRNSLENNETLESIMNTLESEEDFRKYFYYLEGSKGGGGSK
Kind of test: SPR, captured biotin-peptide, antibody analyte.

Test [6] concerns the target T6, full-length human Nav1.7 fused at its N-terminus to GFP, expressed in HEK293 cells (human, UniProt Q15858 1-1988).
T6 construct: Voltage-gated sodium channel alpha subunit; In the Western blot it stood as denatured cell lysate; also called hNav 1.7-GFP-HEK293; Nav 1.7-GFP-HEK293; not shown: green fluorescent protein (GFP) at the N-terminus
Kind of test: flow cytometry on Nav1.7-GFP-HEK293, antibody 3.3 nM. On the procedure: (§2) The specificity of binding of anti-Naᵥ 1.7 human antibodies to full-length Naᵥ 1.7 expressed in HEK293 cells was determined by peptide competition experiments using flow cytometry.
(§3) HEK293 cells stably-transfected with full-length Naᵥ 1.7 fused at its N-terminus to GFP (Naᵥ 1.7-GFP-HEK293) were used for this study. Antibody binding to the transfected cells overexpressing Naᵥ 1.7 was compared to binding in the presence of excess peptide and to binding to the parental HEK293 cell line. To perform the binding experiments, adherent cells were collected using 1 mM EDTA in PBS, washed and re-suspended in cold PBS containing 5% FBS. For each binding experiment the anti-Naᵥ 1.7 antibody at a final concentration of 3.3 nM (in PBS/5% FBS) was added to cells either directly or after incubating for 10 min on ice with a 1000-fold molar excess (3.3 uM final concentration in PBS/5% FBS) of synthetic peptide with sequence corresponding to the loop specificity of the antibody. The antibodies designated as H4H391P, H4H443B, H4H448B, and H1M797N were preincubated as described above with a synthetic peptide corresponding to EC loop 3-1 (amino acid residues 269-338 of SEQ ID NO: 670), whereas the antibodies designated as H4H468P and H1 M852N were preincubated with a synthetic peptide corresponding to EC loop 3-3 (amino acid residues 1333-1382 of SEQ ID NO: 670). The antibody or antibody-peptide mixture was then allowed to incubate with cells for 20 min on ice, followed by addition of 500 uL of cold PBS/5% FBS. Cells were collected by centrifugation, resuspended in 500 uL of cold PBS/5% FBS, and then secondary antibody matched to the antibody isotype (either anti-human-Fc conjugated to Cyanine 5 or anti-mouse-Fc conjugated to allophyococyanin) was added. Binding was detected on the flow cytometry instrument and analyzed as percent binding using the instrument software. For FACS analysis appropriate gating was applied so that only healthy, live cells were counted. Background staining of secondary antibodies alone to Naᵥ 1.7-GFP-HEK293 cells was tested and recorded for all samples, and results ranged between 1-2% binding.
In general terms: A flow cytometer gives signals particle by particle.

The target in test [7] is T6, full-length human Nav1.7 fused at its …. The test can be described thus: flow cytometry; % stained hNav1.7-GFP-HEK293 minus parental HEK293. On the procedure: The binding of anti-Naᵥ 1.7 human antibodies to full-length Naᵥ 1.7 expressed in HEK293 cells was determined by flow cytometry (FACS). HEK293 cells were stably-transfected with full-length human Nav1.7 fused at its N-terminus to the green fluorescent protein (GFP) to generate cell line hNaᵥ 1.7-GFP-HEK293. Antibody binding to the transfected cells overexpressing Naᵥ 1.7 was compared to binding to the parental HEK293 cell line. To perform the binding experiments, adherent cells were collected using 1 mM EDTA in PBS, washed and re-suspended in cold PBS containing 5% FBS. For each binding experiment, the anti-Naᵥ 1.7 antibody (at concentrations ranging from 1 nM to 13 nM), was added to 250,000 cells in 500 μL of PBS with 5% FBS. After incubation for 20 minutes on ice, the secondary antibody, recognizing either human-Fc and conjugated to cyanine 5 (Cy5) or recognizing mouse-Fc and conjugated to allophyocyanin (APC), was then added to the cell mixture at a final secondary antibody concentration of 1.7 nM. After incubating for 20 minutes on ice, the cells were resuspended in PBS+5% FBS and then sorted and analyzed on a flow cytometer to determine relative binding by the candidate antibodies. For FACS analysis, gating was applied to examine only healthy live cells in the antibody binding experiments, and percentage stained was recorded. Staining of secondary antibodies alone to Naᵥ 1.7-GFP-HEK293 cells gave low background signals (1-2%). Specific binding was measured as the percent binding to Naᵥ 1.7-GFP-HEK293 cells minus percent binding to parental HEK293 cells.

Test [8] shares this target. Kind of test: flow cytometry on Nav1.7-GFP-HEK293, antibody 3.3 nM preincubated with 3.3 uM EC 3-1 peptide as competitor. On the procedure:
as §2, §3

The target in test [9] is T3, N-Term Biotin Nav1.7 (3-1) peptide, …. Kind of test: ELISA on coated peptide. On the procedure:
Anti-Naᵥ 1.7 antibodies were tested for their ability to bind to the Naᵥ 1.7 peptides. The various peptides were coated overnight onto 96-well Nunc Immunosorp plates at a concentration of 4 μg/mL in PBS, followed by blocking for 1 hour in a suitable blocking agent. For biotinylated peptides, avidin was first coated on Nunc Immunosorp plates at 2 μg/mL in PBS overnight, followed by blocking as described, and the plate was then coated with biotinylated peptides at a concentration of 0.4 μg/mL and incubated for 1 hour at room temperature. Purified anti-Naᵥ 1.7 antibodies were diluted to a final concentration of 0.1 μg/mL and 1.0 μg/mL and added to the wells of the coated microtiter plates followed by incubation for 1 hour at room temperature. Bound antibodies were detected with horseradish peroxidase (HRP) conjugated anti-mouse or anti-human IgG (Jackson Immuno Research Lab, West Grove, Pa.) depending on the antibody species and developed by colorimetric response using tetramethylbenzidine (TMB) substrate (BD Biosciences). Absorbance was read at OD₄₅₀ on a plate reader for 0.1 second.
Values in Table 11 represent absolute binding ranges (at OD450) to plate-coated peptides for antibodies added at 1 μg/ml as follows: OD450<0.2: −; 0.2<OD450<1: +; 1<OD450<2: ++; 2<OD450<4: +++; NT: Not Tested.
For orientation: ELISA stands for enzyme-linked immunosorbent assay.

For test [10], the target named is T6, full-length human Nav1.7 fused at its …. The test can be described thus: cell-based or functional assay.
Test [11] addresses T2, N-Term Biotin Nav1.7 (3-1) peptide, …. Kind of test: ELISA on coated peptide, antibody 1 ug/ml, OD450 grade. In a few lines: (§4)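 Binding graded from absorbance at OD450 for antibodies applied at 1 μg/ml (− below 0.2, + 0.2–1, ++ 1–2, +++ 2–4; NT not tested); antibodies were also run at 0.1 μg/mL. Biotin-peptides at 0.4 μg/mL on avidin-coated plates, other peptides at 4 μg/mL; 1 h RT binding; HRP anti-IgG/TMB detection.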

The target of test [12] is T7, N-Term Biotin-Nav1.7 (3-1) peptide, human (human, not fully specified; N-terminal biotin attached via a G4S linker).
T7 construct: ELISA peptide
T7 peptide: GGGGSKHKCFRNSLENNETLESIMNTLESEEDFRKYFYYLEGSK
The test is described as above. The procedure, abridged: as §4

B1: H4H391P (antibody, V domains shown)
VH: QVQLVESGGGVVQPGRSLRLSCAASGFTFSSYGMHWVRQAPGKGLEWVAVISYEGSNKHYADSVKGRFTISRDNSKNTLYLQMNSLRAEDTAVFYCAQSRGYSYGLGYWGQGTLVTVSS
VL: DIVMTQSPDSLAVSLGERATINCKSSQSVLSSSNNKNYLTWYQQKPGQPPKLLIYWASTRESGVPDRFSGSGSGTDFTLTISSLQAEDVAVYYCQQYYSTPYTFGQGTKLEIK
For B1, the dissociation constant (Kd) came out at 13.6 nM in [1], 2.18 nM in [2] and 0.802 nM in [5]. The t1/2 in test [1] was 8.1 min; in test [2] it was 36.1 min; in test [5], 64.6 min. Besides, the binding result in [3] and in test [4] was “no binding” throughout. Also, in test [6], the “% Binding Nav1.7 (Stable Line)” value was found to be 7.8%. For the same molecule, in test [7], the “% Binding Nav1.7” value is 14.3%. In addition, the “% Binding Nav1.7 + 1000x Peptide (Competition Binding)” value (from here on “% Binding Nav1.7 + 1000x Peptide”) in test [8] was 2.6%.

B2: H4H408B (antibody, V domains shown)
VH: QVQLVESGGGVVQPGRSLRLSCAASGFTFSSYGMHWVRQAPGKGLEWVAVISYQESNKHYVDSVKGRFTISRDNSKNTLYLQMNSLRAEDTAVYYCAQSRGYSYGLGYWGQGTLVTVSS
VL: DIQMTQSPSSLSASVGDRVTITCRASQGIRNDLGWYQQKPGKAPKRLIYAASSLQSGVPSRFSGSGSGTEFTLTISSLQPEDFATYYCQQHNSYPLTFGQGTKVEIKR
In test [9], B2 displayed an OD450 of less than 0.2 od. Further, the binding result in [3] is “no binding”.

B3: H4H362B (antibody, V domains shown)
VH: QVQLVESGAEVKKPGASVKVSCKASGYTFTTYGISWVRQAPGQGLEWMGWISAYNGKTNYAQKFQGRVTMTTDTSTNTAYMELRSLRFDDTAVYYCARDGGTPFYYWGQGTLVTVSS
VL: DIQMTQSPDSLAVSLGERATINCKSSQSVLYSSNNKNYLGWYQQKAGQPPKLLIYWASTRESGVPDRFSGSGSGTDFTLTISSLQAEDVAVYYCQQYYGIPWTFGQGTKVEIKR
For the molecule B3, the “Current blocking (Average % inhibition), IonWorks Quattro, 223 nM antibody” value in [10] stood at 25.5%. Moreover, the OD450 is less than 0.2 od in test [9], 2 to 4 od in [11] and 2 to 4 od in test [12]. Also, the results for the dissociation constant Kd in test [1], in test [2] and in test [5] were 0.612 nM, 0.257 nM and 0.218 nM, respectively. Also, the results for the t1/2 in test [1], in [2] and in test [5] were 8.6 min, 36.1 min and 101 min, respectively. Further, the binding result in test [3] is recorded as “no binding”. In addition, in [7], the “% Binding Nav1.7” value was determined as 3.7%.

B4: H1M994N (antibody, V domains shown)
VH: QVQLVESGGGVVQPGRSLRLSCAASGFTFSSYGMHWVRQAPGKGLEWVAVISYDGNNKHFADSVKGRFTISRDNSKNTLNLQMNSLRAEDRAVYYCARGASGFVLDIWGQGTMVTVSS
VL: DIVMTQTPLSSPVTLGQPASISCRSSQSLVRSDGNTYLSWLQQRPGQPPRLLIYKISNRFSGVPDRFSGSGAGTDFTLKISRVEAEDVGIYFCMQTTQFPFTFGPGTKVDIK
notes: Hybridoma-derived
Regarding B4, the “% Binding Nav1.7 (Stable Line)” value in [6] amounted to 93%. Besides, the “% Binding Nav1.7” value in test [7] was determined as 36%. Also, the “% Binding Nav1.7 + 1000x Peptide” value in [8] was 33.4%.

B5: H1M826N (antibody, V domains shown)
VH: QVQLVESGGGVVQPERSLRLSCAASGFTFSSYGMHWVRQAPGEGLEWVAVISYDGSNTKYADSVRGRFTISRDNSKNMLYLQMNSLRAEDTAVFYCARGYSGYAFDYWGQGILVTVSS
VL: DIVMTQTPLSSPVTLGQPASISCRSSHSLVRSDGNTYLSWLQQRPGQPPRLLIYKISNRFSGVPDRFSGTGAGTDFTLKINRVEAEDVGFYYCMQATQFPFTFGPGTKVDIK
notes: Hybridoma-derived
For B5, in [6], the “% Binding Nav1.7 (Stable Line)” value turned out to be 95.6%. The “% Binding Nav1.7” value in [7] stood at 61%. Moreover, in [8], the “% Binding Nav1.7 + 1000x Peptide” value was 17.7%.

What is called Kd is the free concentration of one partner at which half of the binding sites on the other are occupied at equilibrium, for simple one-to-one binding.
